Experimental data from patent publication US20210130436A1.
Several values for one entry are separate records, joined by “and”; a condition that tells them apart may be missing. Identical values can stand only once.

Tests used:
[1] = target: human CTLA4 (full-length, expressed on CHO cells) (human) (UniProt P16410); assay: flow cytometry, CHO cells expressing huCTLA4, PE anti-human Fc
[2] = target: CD28, endogenously expressed on Jurkat/IL2 reporter cells (human) (UniProt P10747); assay: flow cytometry, Jurkat/IL2 reporter cells (endogenous CD28)
[3] = target: human CTLA4, full-length, expressed on transfected HEK293 (Expi293F) cells (human) (UniProt P16410); assay: flow cytometry, Fc fusion on HEK293 cells transfected with full-length human CTLA4
[4] = target: PD-1 expressed on cells (Homo sapiens (Human)) (UniProt Q15116); assay: flow cytometry; 20 nM Fc fusion on cells expressing PD-1
[5] = target: CD28, endogenously expressed on Jurkat/IL2 reporter cells (human) (UniProt P10747); assay: flow cytometry, Jurkat/IL2 reporter cells (endogenous CD28), PE anti-human Fc
TIGIT [6] = target: T1, TIGIT (UniProt Q495A1); assay: flow cytometry, MFI ratio to wildtype CD155 ECD-Fc, TIGIT cells
T1 sequence (looked up): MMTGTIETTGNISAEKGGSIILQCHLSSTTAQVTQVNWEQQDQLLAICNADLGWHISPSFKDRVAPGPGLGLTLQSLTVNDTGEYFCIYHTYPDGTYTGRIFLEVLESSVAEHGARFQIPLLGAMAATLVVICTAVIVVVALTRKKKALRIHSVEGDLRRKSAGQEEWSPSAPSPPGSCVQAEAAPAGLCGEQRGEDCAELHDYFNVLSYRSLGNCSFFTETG

TIGIT [7] = target: T1, TIGIT; assay: flow cytometry on cells expressing TIGIT, Fc fusion at 100 nM
CD112R [8] = target: CD112R (UniProt Q6DKI7); assay: flow cytometry on CD112R-expressing cells
Target sequence in this assay (Q6DKI7 41-326 limits assumed): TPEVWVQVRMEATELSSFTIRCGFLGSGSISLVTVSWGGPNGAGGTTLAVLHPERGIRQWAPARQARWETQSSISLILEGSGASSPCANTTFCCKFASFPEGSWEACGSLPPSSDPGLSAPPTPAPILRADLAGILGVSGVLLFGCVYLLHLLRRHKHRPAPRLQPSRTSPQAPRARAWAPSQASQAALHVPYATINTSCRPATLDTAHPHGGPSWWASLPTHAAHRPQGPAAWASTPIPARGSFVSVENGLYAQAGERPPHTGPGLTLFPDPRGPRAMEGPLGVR

[9] = target: human CTLA4 (huCTLA4), full-length, stably expressed on CHO cells (human) (UniProt P16410); assay: flow cytometry, CHO cells expressing huCTLA4
CD28 (human) = CD28 (human) (UniProt P10747); assay: flow cytometry, Jurkat/IL2 reporter cells (endogenous CD28), 33.3 nM, PE anti-human Fc
[10] = target: PD-L1 expressed on CHO/OKT3/PD-L1 artificial antigen presenting cells (human) (UniProt Q9NZQ7); assay: cell-based or functional assay
[11] = target: human CD28, full length, expressed on transfected HEK293 cells (human) (UniProt P10747); assay: flow cytometry, HEK293 cells transfected with human CD28
[12] = target: human PD-L1, full length, expressed on transfected HEK293 cells (human) (UniProt Q9NZQ7); assay: flow cytometry, HEK293 cells transfected with human PD-L1
human CTLA-4 (human) [13] = target: human CTLA-4 (human) (UniProt P16410); assay: flow cytometry, CHO cells stably expressing CTLA4
PD-L1 (human) = PD-L1 (human) (UniProt Q9NZQ7); assay: flow cytometry, CHO cells stably expressing huPD-L1, 33.3 nM, PE anti-human Fc
human CTLA-4 (human) [14] = target: human CTLA-4 (human) (UniProt P16410); assay: flow cytometry, CHO cells stably expressing huCTLA4, 33.3 nM, PE anti-human Fc
[15] = target: CD28, endogenously expressed on Jurkat/IL2 reporter cells (human) (UniProt P10747); assay: flow cytometry on Jurkat/IL2 reporter cells (endogenous CD28); PE anti-human Fc
CD112R [16] = target: CD112R (UniProt Q6DKI7); assay: flow cytometry, protein at 25 nM on cells expressing CD112R
Target sequence in this assay (Q6DKI7 41-326 limits assumed, form in doubt): as the sequence (Q6DKI7 41-326 limits assumed) above

CD226 = CD226 (UniProt Q15762); assay: flow cytometry, protein at 25 nM on cells expressing CD226
Sequence of CD226 (Q15762 19-336): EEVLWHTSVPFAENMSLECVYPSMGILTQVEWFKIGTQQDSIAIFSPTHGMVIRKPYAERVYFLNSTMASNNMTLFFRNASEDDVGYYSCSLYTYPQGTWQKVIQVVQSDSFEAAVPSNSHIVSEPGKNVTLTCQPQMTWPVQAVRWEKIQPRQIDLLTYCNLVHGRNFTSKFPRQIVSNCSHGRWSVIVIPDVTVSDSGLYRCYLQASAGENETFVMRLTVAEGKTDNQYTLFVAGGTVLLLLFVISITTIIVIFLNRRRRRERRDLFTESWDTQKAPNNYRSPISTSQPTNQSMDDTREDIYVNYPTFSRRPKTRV

Sequence of human CTLA-4 (human) (P16410 36-223): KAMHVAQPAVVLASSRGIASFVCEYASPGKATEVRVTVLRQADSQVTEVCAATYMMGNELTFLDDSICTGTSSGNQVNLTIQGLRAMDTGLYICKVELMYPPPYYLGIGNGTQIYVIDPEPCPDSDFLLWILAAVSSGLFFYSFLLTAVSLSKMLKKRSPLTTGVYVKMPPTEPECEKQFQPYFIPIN
Sequence of PD-1 expressed on cells (Homo sapiens (Human)) (Q15116 21-288): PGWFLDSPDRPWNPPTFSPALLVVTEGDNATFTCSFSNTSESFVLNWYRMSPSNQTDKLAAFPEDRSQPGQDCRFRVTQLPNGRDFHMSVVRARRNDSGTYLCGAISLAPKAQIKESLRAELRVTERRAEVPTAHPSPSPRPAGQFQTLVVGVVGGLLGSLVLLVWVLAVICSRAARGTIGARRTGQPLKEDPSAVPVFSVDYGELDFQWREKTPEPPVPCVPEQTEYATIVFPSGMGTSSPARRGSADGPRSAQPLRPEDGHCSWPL
Sequence of human CTLA4 (full-length, expressed on CHO cells) (human) (P16410 36-223): as the sequence (P16410 36-223) above
Sequence of human CTLA4, full-length, expressed on transfected HEK293 (Expi293F) cells (human) (P16410 36-223): as above
Sequence of human CTLA4 (huCTLA4), full-length, stably expressed on CHO cells (human) (P16410 36-223): as above

variant CD80 IgV-Fc E35D/M47I/K54R/L85E (from UniProt P33681 35-141) (Fc fusion)
MFI at 33.3 nM [1]: 8660 MFI

variant CD80 IgV-Fc E35D/M47L/V68M/E95V/L97Q (from UniProt P33681 35-141) (Fc fusion)
MFI at 33.3 nM [2]: 14 MFI

variant CD80 IgV-Fc Q27L/Q33L/E35D/T41S/M47V/N48K/V68M/L85M (from UniProt P33681 35-141) (Fc fusion)
MFI at 33.3 nM [2]: 15 MFI

variant CD80 IgV-Fc K36R/G78A (from UniProt P33681 35-141) (Fc fusion)
MFI at 66.6 nM [3]: 11900 MFI

variant PD-L1 G15A/I36T/V129D/R195G Fc fusion (from UniProt Q9NZQ7 19-238)
MFI at 20 nM [4]: 125 MFI

variant CD80 IgV-Fc H18L/V22A/E35D/M47L/N48T/L85Q (from UniProt P33681 35-141) (Fc fusion)
MFI at 33.3 nM [5]: 434 MFI

Wildtype (CD155 entry without mutations among the variant rows of Table 20B) (from UniProt P15151 21-142) (Fc fusion)
Fold ↑ to WT ECD (TIGIT [6]): 0 fold
MFI at 100 nM (TIGIT [7]): 1960 MFI and 2180 MFI

variant CD112 IgV-Fc R12W/A46T/K66M/Q79R/N106I/T113A/S118F (from UniProt Q92692 32-158) (Fc fusion)
MFI at 100 nM (CD112R [8]): 1660 MFI

variant CD80 IgV-Fc Q33L/E35D/M47V/T62S/V68M/L85M (from UniProt P33681 35-141) (Fc fusion)
MFI at 33.3 nM [2]: 15 MFI

variant CD80 IgV-Fc H18Y/E35D/M38I/M47L/V68M/L85M (from UniProt P33681 35-141) (Fc fusion)
MFI at 33.3 nM [2]: 16.7 MFI
MFI at 33.3 nM [9]: 139 MFI

E35D/D46E/M47L/V68M/L85Q/F92L CD80 IgV-Fc (from UniProt P33681 35-141) (Fc fusion)
MFI at 33.3 nM (CD28 (human)): 15 MFI

Fc1.1 Control (from UniProt P0DOX5 218-448)
Relative Luciferase Units (RLU), Jurkat/IL2 + CHO/OKT3/PD-L1 reporter assay, CD80 Conc 5.0 nM [10]: 97 RLU

variant CD80 IgV-Fc V22L/E35D/M43L/A71G/D76H (from UniProt P33681 35-141) (Fc fusion)
MFI at 66.6 nM [11]: 1500 MFI
MFI at 22.2 nM [12]: 1850 MFI

CD80 IgV-Fc T13R/Q33R/E35D/M38I/M47L/V68M (from UniProt P33681 35-141) (Fc fusion)
MFI at 33.3 nM (human CTLA-4 (human) [13]): 193 MFI

deltaE10-A98 CD80 IgV-Fc (Fc fusion)
MFI at 33.3 nM (PD-L1 (human)): 45 MFI
MFI at 33.3 nM (CD28 (human)): 15 MFI
MFI at 33.3 nM (human CTLA-4 (human) [14]): 125 MFI

variant CD80 IgV-Fc Q33L/E35D/M43I/Y53F/T62S/L85Q (from UniProt P33681 35-141) (Fc fusion)
MFI at 33.3 nM [15]: 1024 MFI

CD112-IgV (from UniProt Q92692 32-158) (Fc fusion)
MFI at 25 nM (CD112R [16]): 17800 MFI
MFI at 25 nM (CD226): 824 MFI

variant CD80 IgV-Fc R29C/E35D/M47L/V68M/A71G/L85M (from UniProt P33681 35-141) (Fc fusion)
MFI at 33.3 nM [2]: 16 MFI

variant CD80 IgV-Fc Y31H/E35D/T41S/V68L/K93R/R94W (from UniProt P33681 35-141) (Fc fusion)
MFI at 66.6 nM [11]: 2450 MFI
